Data as given in article PMC13570301.
pKd: −log10 of the molar value.

Tests used:
[1] = molecular target: CHIP Y230Cfs∗9, recombinant, C-terminal His tag (human) (UniProt Q9UNE7); assay: mass photometry; Refeyn OneMP; CHIP at 50 nM final (a subset also at 20 nM and 100 nM) in 20 mM HEPES pH 8.0, 200 mM NaCl; self-association, oligomeric states by mass
[2] = molecular target: UBE2D2 (1–147), from the plasmid pHis//2 Hs UBE2D2 (1–147) (human) (UniProt P62837); assay: BLI; details: enzyme
Chain of UBE2D2 (1–147), from the plasmid pHis//2 Hs UBE2D2 (1–147) (human) (P62837 whole entry): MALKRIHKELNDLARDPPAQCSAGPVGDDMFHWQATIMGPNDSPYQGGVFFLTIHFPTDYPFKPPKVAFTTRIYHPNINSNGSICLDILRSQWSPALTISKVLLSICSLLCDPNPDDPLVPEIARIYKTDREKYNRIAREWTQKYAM

Chain of CHIP Y230Cfs∗9, recombinant, C-terminal His tag (Q9UNE7 whole entry): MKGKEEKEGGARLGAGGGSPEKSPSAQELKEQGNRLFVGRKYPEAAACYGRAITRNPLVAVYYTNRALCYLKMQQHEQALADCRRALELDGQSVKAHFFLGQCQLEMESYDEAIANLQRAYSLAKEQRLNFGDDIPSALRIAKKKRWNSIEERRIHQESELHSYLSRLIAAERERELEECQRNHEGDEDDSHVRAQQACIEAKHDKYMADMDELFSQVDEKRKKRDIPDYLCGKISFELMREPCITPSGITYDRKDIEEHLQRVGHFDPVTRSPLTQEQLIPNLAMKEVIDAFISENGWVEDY
Chain of CHIP L275Dfs∗16, recombinant, C-terminal His tag (Q9UNE7 whole entry): as above

percent of the protein as dimer [1] [%]	stoichiometry N [1]	pKd [2]	Substance
80	2	–	CHIP Y230Cfs∗9, recombinant, C-terminal His tag (from UniProt Q9UNE7-1 1-303) (enzyme)
–	–	3.51	CHIP L275Dfs∗16, recombinant, C-terminal His tag (from UniProt Q9UNE7-1 1-303)
